Test results: patent US20020022718A1, “Genes identified as required for proliferation of E. coli” (priority 1999, published 2002)

B1: EcXA157: antisense clone insert to E. coli rpsC, rplV (nucleic acid, listed as Escherichia coli)
antisense: TCCTTAGTCAGGTACTGACGTACTTTAAAATCGCTGTCCAGGTTGTCAGCGAATTCTTTGGTGTTCGCAAACCAGGTAGAGTTCCATGGTTTTACAATACCCAGGCGAATACCATTAGGATGTACTTTCTGACCCATTGCTAGTCTCCAGAGTCTCAGCGATCGGACACAACCACAGTGATGTGGCTGGTG
B2: EcXA156: antisense clone insert to E. coli yihN (nucleic acid, listed as Escherichia coli)
antisense: AAATAGACCGGCATACTTTCGTGCGGCAGCATAATCAACAGTACGAGCGCAGCGGTACTAATGATAAAGGTGTAGCATAGATATTTACTTGGCGATTTCAGGATCTTATCTGAAATCATGCCACCAATCGGTCCACCAATCATTTTCAGACAGT
B3: EcXA173: antisense clone insert to E. coli yhhJ (nucleic acid, listed as Escherichia coli)
antisense: GCCACGCCCAGCATAAACAGCGGGATCGAGCCTTCAATCGGTACGCCCAGTACACCTTTCACCATCAGCACCAGCGATAATCC
B4: EcXA167: antisense clone insert to E. coli gatB (nucleic acid, listed as Escherichia coli)
antisense: TATAGGGGNCTATTTCATTAACCCGACACTGGATTAATTCAACAGGAATATTATGATTCTGACACAACTCTTTAATTTCTTCCGCCGCCATCGTAGAGGTCGCAACCGCGCCTCCGCAAGCGACAATAATCTTGCGTTTCATA
modifications: misc_feature (1)...(143): n = A,T,C or G
notes: antisense clone insert to E. coli gatB
B5: EcXA152: antisense clone insert to E. coli bcr (nucleic acid, listed as Escherichia coli)
antisense: AGCTGATCGATGGTGTTTGCCAACGCACACGCCACCGCGGCGGCGGCAAACACCANCGTACCGCCGAGCACCACCGGCTTACGCCCGAAGCTGTCTGCCATCGGCCCGTAGATTAACTGCCCCAACGCAAAGCCCAGAATATAAGTACTGAGGGTCATCTGCGTACTGCCCGNCGGTACGCCAAACTGCGCTGAAATTACCGGTAGCGCGGGCAGATACATATCAATCGACAGCGGCATCAACATGGCCAGCAGGCCAAGGATAAAAACAATAGCAAACGACGAATGCTGTCGGGTGGTC
modifications: misc_feature (1)...(300): n = A,T,C or G
notes: antisense clone insert to E. coli bcr
B6: EcXA162: antisense clone insert to E. coli yjgV (nucleic acid, listed as Escherichia coli)
antisense: AAAGGTTCGGCAAAAGCCATAACCTTTTCGTCAGCTTTGGCCGGATAAGGGACACATTGCGACGTTTCGACCATTTTATAACGGGTAAAACCACCATCAACATGAGGGAAATACATGGCACTGCCAAAAAAACGCATATCTGTACACTGATTCTCGTTATGTTCAATGCAGTATTTGCAGTGACCGCACGGTTTAGACGGATTAATGGCTACCGTTTGCCCTTCATGTAATTCTGA
B7: EcXA165: antisense clone insert to E. coli ybeJ (nucleic acid, listed as Escherichia coli)
antisense: ACTTATCAAACCATTTTTCCGCTTCACCGGAGGTCTGCACCTGAGCGATGGTGTCATCCATCAGCTTTTTGA
B8: EcXA158: antisense clone insert to E. coli b2519 (nucleic acid, listed as Escherichia coli)
antisense: GCTGGTGCCCGTTTTCCATGCCAGTGGGGCGACGCGCGGCAAGGCACTATCCGGCAAGGGTTGCGCTTCATCAGCCATAATCCGGCGAATGATCCACGCCGCCCCCGACGACATTAAAGGCCGTTCAAGCAGCGGATCGTCAGGCTGTAAGCGCAATTTGCCTGCCTTGCCGTGGCGAGCAAACGCGGTA
B9: EcXA174: antisense clone insert to E. coli endA (nucleic acid, listed as Escherichia coli)
antisense: GCCNGGCGGGAACCGACATGTTCCCACTCTACGCCGGCTGGCGCGGTTTTCATTTTTGCGCACCTGATAGCCGCACGATTGCAGATCAACAACGCCTTTTTTG
B10: EcXA159: antisense clone insert to E. coli b0482 (nucleic acid, listed as Escherichia coli)
antisense: AAAAAATGAAATTCCTCTTTGACGGGCCAATAGCGATATTGGCCATTTTTTTAGCGCAACATTTGCGGCAAATTCCCTTCTCCATACAGGTGTAGTGCACCGACCGCGACCACATATCGCCCCGGCGGCATGGCGCGTAATTTATCCCGCCAGGCGAGATTTCGCTGATGCATCAGCACATCGTACAGCGACTGACTGAACGTATTGGGCAGCGTTATATCATTATTTTGCGGCGGTGCATTCAGCCACCAGCTCATCATTTGTTGCAGCAACCGTGCGTTGGTATGCCAGTGGGTCAGCGTATCGTCCAGCAGCGCCAGTCCTTTGTCAGGGAGCTGGAGCAACATGGCAATCTGGTTTTCAGCCCCTTCCAGTTCAATCACGGGTTTATGTTGTTGCTTC
B11: EcXA154: antisense clone insert to E. coli b1983 (nucleic acid, listed as Escherichia coli)
antisense: TTCTGTAATCAGAAAAAGAAGAACTGGAATTTTAATAAATATTATTTCTCTGGGAACGGGGGGGTATAATCAATATGACGAGTTGAATATTATATTTTTTATAAGAATTATATGAGATTAAAGAAATCTGCCGTAAAGACAGATTTCTTTAAAAGATAATTAGAGATTTGCGACGTTATGATAAACTTTTTGTACATCGTCGTCATCTTCAAG
B12: EcXA164: antisense clone insert to E. coli glpC (nucleic acid, listed as Escherichia coli)
antisense: TGTCGACATTCAGCACTTCCGGGTATTCGTCGCGCAGGGCAAATGTACAGGTTGAGGAGGTG
B13: EcXA171: antisense clone insert to E. coli b0876 (nucleic acid, listed as Escherichia coli)
antisense: AGCGCCGGTAACGCCCGTTAAATGTTCTCGTTCGGCTTCCCGATCGTTATTCAACAGGCTGCGTACCGTAGCGGCATATTTCTTCCCTGCTTCATCGCCATC
B14: EcXA150: antisense clone insert to E. coli spoT (nucleic acid, listed as Escherichia coli)
antisense: CCGGGGCTGACGTGGGCGATAATCGGGTCGCCAGGAATAGGGCGGCAGCATTTCGCAAAGGTGATCAGCACGCCATCGGCACCTTTAATGGGCAGATGTCCGTGGCTTTGGGTTGCCGGTGGAATGGAGGCGTCCCCATGTTGCAGATTTTTCGCGACCACCACGCTCATTGCGTTACCA
B15: EcXA153: antisense clone insert to E. coli yjbI (nucleic acid, listed as Escherichia coli)
antisense: CAACATCTCATGTCTGGATTTGTAGATATACGTGGAATTCCAATTGGTATCTTTTGTAGGATTCAACATATCATGTAAGCGCTGGGAGCTTACCACCATAACTGGCCCATCATCGACTGAGGAGAACAGGATAAAGATATTATCGTTTCGTGTTAATTCATTCGTGTTAAAGGTTCTTAAATTATCTTCAGTTTCTATAAATATAGG
B16: EcXA151: antisense clone insert to E. coli dctA (nucleic acid, listed as Escherichia coli)
antisense: TGTCGAGCATACGCGGCAGCGCCGACTCGGAAGATGAAGTCCCCAGTACAATCAGCAGTTCTTCACGGATGTAGCGGATAAATTTGAAGATACTGAAACCAGTCGCTTTAGCGATTGAACCCAATACCAGCACCACAAACAGGATACAGGTAATGTAGAAACAGATAATCAGCTGCCCCAGTTGCACCAGTGTGCCGACGCCGTATTTACCGATGGTAAACGCCATTGCCCCGAACGCACCAATAGGTGCCAGA
B17: EcXA175: antisense clone insert to E. coli pykA (nucleic acid, listed as Escherichia coli)
antisense: TAGCTTCTTCCACATTGTCGAACTGAACGTCCAGACGGTGTTTAGAAACGTTGATGCTCGGGATTTTTTCCGCACCCAGGCAAACGCGCGCCATGGCTGCAACGGTTTCTGACGGATACTG
B18: EcXA166: antisense clone insert to E. coli yihE (nucleic acid, listed as Escherichia coli)
antisense: AAACGCATGGCGCGTAAAGGTTCAATCAGTCCGATTTCAGCGGTGTCGAACTCGCTAAATTCTTCA
B19: EcXA168: antisense clone insert to E. coli b1721 (nucleic acid, listed as Escherichia coli)
antisense: GAGGAACCGTGTGACACACAAAGGGTGATTATTTTCCATTGCGGCGTATAATCCTGGCTCACCATCATGTATTTTCATGGCTAAAATACTCATCACCAGTTTTTTGTTTAAAAGCTCTTGTGCTATTGGAGTGGTTAATGCATTCAGAAAGATATCGATTATTTCATCGAATCCATACAACATGGAGATATAAAGTCCAGGTGTTTCGTT
B20: EcXA163: antisense clone insert to E. coli yidC (nucleic acid, listed as Escherichia coli)
antisense: GAAGAGATGTTCAGGTTTTCGTTATCGGCAATGGTATCGAACTTGTATTTCTCATACTTCTCGTCAGGCGTGGAGTACGCCGCGCCACGGAA
B21: EcXA169: antisense clone insert to E. coli rpsE (nucleic acid, listed as Escherichia coli)
antisense: AGAGCTGTGAAGGAGAAAATACGACCACCTTTAACGGTTTTAGATACGCGGTTTACCGCGATCAGCTTTTCCTGCAGTTCGCCAGCTTGTTTTTCGATGTGAGCCATCTTACACCTCT

Each molecule was assayed on Klebsiella pneumoniae (assay: Growth inhibition by induced E. coli antisense RNA in Klebsiella pneumoniae). Details: antisense RNA expression induced with IPTG, serial dilution plating.
Assay type: cell-based
Parameters: key: +: a positive in Table V below means that at least 10 fold more cells were required to observe a colony on the induced plate than on the non-induced plate; −: If there was no effect of antisense RNA expression in a microorganism, the clone is minus in Table V below
Procedure, shortened: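 An E. coli antisense fragment (b3052 portion), or other E. coli-inhibitory antisense clones, was expressed in each species on IPTG induction (1 mM). Serial 10-fold dilutions were spotted on selective agar with or without IPTG overnight. The score is the log difference in maximal colony-forming dilution, induced vs uninduced (0 = no effect; positive = at least 10-fold).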

Row | Molecule | Sensitivity of K. pneumoniae to antisense nucleic acid (growth inhibition, induced vs. uninduced)
1 | B1 | −
2 | B2 | −
3 | B3 | −
4 | B4 | −
5 | B5 | −
6 | B6 | −
7 | B7 | −
8 | B8 | −
9 | B9 | −
10 | B10 | −
11 | B11 | −
12 | B12 | −
13 | B13 | −
14 | B14 | −
15 | B15 | −
16 | B16 | −
17 | B17 | −
18 | B18 | −
19 | B19 | −
20 | B20 | −
21 | B21 | −
